The record followed here is PMC5996891, “Staphylococcus aureus Phenol-Soluble Modulins α1–α3 Act as Novel Toll-Like Receptor (TLR) 4 Antagonists to Inhibit HMGB1/TLR4/NF-κB Signaling Pathway” (Frontiers in Immunology, 2018).

B1: recombinant disulfide HMGB1 protein (natural protein)
chain: MGKGDPKKPRGKMSSYAFFVQTCREEHKKKHPDASVNFSEFSKKCSERWKTMSAKEKGKFEDMAKADKARYEREMKTYIPPKGETKKKFKDPNAPKRPPSAFFLFCSEYRPKIKGEHPGLSIGDVAKKLGEMWNNTAADDKQPYEKKAAKLKEKYEKDIAAYRAKGKPDAAKKGVVKAEKSKKKKEEEEDEEDEEDEEEEEDEEDEDEEEDDDDE
modifications: disulfide bond between cysteines 23 and 45; reduced thiol on cysteine 106
notes: high mobility group box-1 protein; also called high mobility group box-1 protein; source: recombinant, provided by Kevin Tracey (The Feinstein Institute for Medical Research)

T1 sequence (O00206 24-631): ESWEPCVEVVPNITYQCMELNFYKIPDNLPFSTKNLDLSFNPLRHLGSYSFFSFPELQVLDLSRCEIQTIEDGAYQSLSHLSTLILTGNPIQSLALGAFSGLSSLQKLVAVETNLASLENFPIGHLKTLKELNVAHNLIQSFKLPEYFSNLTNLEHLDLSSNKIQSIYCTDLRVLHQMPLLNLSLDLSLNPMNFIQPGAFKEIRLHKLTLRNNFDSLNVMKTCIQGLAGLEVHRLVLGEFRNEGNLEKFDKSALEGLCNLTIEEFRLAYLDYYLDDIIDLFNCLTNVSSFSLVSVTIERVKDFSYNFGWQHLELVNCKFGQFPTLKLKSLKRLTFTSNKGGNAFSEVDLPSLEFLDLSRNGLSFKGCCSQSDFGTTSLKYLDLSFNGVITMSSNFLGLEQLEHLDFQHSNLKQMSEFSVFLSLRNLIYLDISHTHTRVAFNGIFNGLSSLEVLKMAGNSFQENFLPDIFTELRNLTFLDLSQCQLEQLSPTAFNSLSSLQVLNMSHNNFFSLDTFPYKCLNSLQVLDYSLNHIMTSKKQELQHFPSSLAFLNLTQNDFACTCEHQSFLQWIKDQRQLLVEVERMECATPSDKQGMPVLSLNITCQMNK

The target of one experiment is recombinant human TLR4 protein (ectodomain, Glu24-Lys631) (human) (UniProt O00206). The experiment is described as follows: SPR; Biacore T200; TLR4 immobilised on a CM5 chip by amine coupling; HMGB1 or synthetic PSMs in 10 mM acetate buffer (pH 5.2) run over at gradient concentrations; 25°C, 30 µL/min; apparent KD.
Chain of recombinant human TLR4 protein (ectodomain, Glu24-Lys631) (human) (O00206 24-631): as above
Conditions: not given
For orientation: Surface plasmon resonance follows binding to a sensor surface in real time, without labels.
On to “Staphylococcus aureus phenol-soluble modulin α1 (peptide)”, for which the Kd is 3.81 µM.

Regarding “Staphylococcus aureus phenol-soluble modulin α2 (peptide)”, the Kd was 3.24 µM.

With “Staphylococcus aureus phenol-soluble modulin α3 (peptide)”, the Kd is 3 µM.

In the case of “Staphylococcus aureus phenol-soluble modulin β1 (peptide)”, the Kd turned out to be 3.79 µM.

As to “Staphylococcus aureus phenol-soluble modulin β2 (peptide)”, the Kd was 7.78 µM.

The next experiment has as its target T1, recombinant human TLR4 protein (ectodomain, Glu24-Lys631) (human, UniProt O00206 24-631).
T1 construct: human toll-like receptor 4, Glu24-Lys631, the ectodomain with no transmembrane domain; followed by a C-terminal Ser and 10-His tag; also called hTLR4; toll-like receptor 4; source: bought: R&D Systems (Catalog Number 1478-TR); not shown: His10 (after a Ser), C-terminal, kept
The description is as above. As to conditions: both partners purified.
On to B1, for which the Kd was 9.2 µM.
